Data on 1 molecule can be found in PMC8140593, “Chemical synthesis of peptidoglycan mimetic–disaccharide-tetrapeptide conjugate and its hydrolysis by bacteriophage T5, RB43 and RB49 L-alanyl-D-glutamate peptidases” (PeerJ, 2021).

A short description of this data set: Solubility in water. The data set is classed as physicochemical.

`CC(=O)N[C@H]1[C@H](O[C@H]2[C@H](O[C@H](C)C(=O)N[C@@H](C)C(=O)N[C@H](CCC(=O)N[C@@H](C)C(=O)N[C@H](C)C(=O)O)C(=O)O)[C@@H](NC(C)=O)C(O)O[C@@H]2CO)O[C@H](CO)[C@@H](O)[C@@H]1O` (stereo partly drawn) [GMTP, N-acetylglucosaminyl-β(1-4)-N-acetylmuramoyl-l-alanyl-γ-d-glutamyl-l-alanyl-d-alanine]: the solubility in water result is “water soluble”.
